The assay addresses T1, HLA-A*02:01/PRAME antigen (recombinant, … on HLA-A*02:01) (human, Complex biotinylated for SPR capture; site of biotin and any tag not stated, not in the letters.).
T1 construct: also called PRAME target; pMHC
The assay is described as follows: SPR (Biacore 8K), biotinylated pMHC captured, Fab-scFv analyte, single-cycle kinetics, 1:1 fit. Here is the method: Recombinantly produced hits in Fab-scFv format, as described in Example 4, were evaluated for their ability to bind HLA-A*02:01/PRAME antigen. Binding characterization was performed by surface plasmon resonance (SPR) using a Biacore™ 8k (Cytiva) device. Briefly, 3000 RU of Biotin CAPture reagent (Cytiva) was immobilized on a Series S Sensor Chip CAP (Cytiva) and the biotinylated ligand HLA-A*02:01/PRAME (SEQ ID NO: 68) was diluted in HPS-EP+ running buffer (TEKNOVA) and captured for 300 s at a flow rate of 2 μL/min at flow cell 2 resulting in a ligand capture level of >100 RU. Subsequently, at least three consecutive analyte injections were performed at suitable concentrations applying the single-cycle-kinetics mode at a flow rate of 30 μL/min with an association time of 90 s and the dissociation time set to >400 s. The chip surface was regenerated according to the manufacturer's instructions. After reference flow cell signal and blank injections subtraction, the data was fit to a 1:1 Langmuir binding model to determine the association rate constant kₐ and dissociation rate constant kd and calculate the equilibrium dissociation constant KD (kd/kₐ), also denoted as affinity, using the Biacore™ Insight Evaluation software.
On the technique in general: Surface plasmon resonance follows binding to a sensor surface in real time, without labels.

For orientation: Kd means the concentration at which binding is half-saturated.

B1: M3286 (bispecific antibody)
heavy: EVQLVESGGGLVQPGGSLRLSCAASGFTFSTYAMNWVRQAPGKGLEWVGRIRSKYNNYATYYADSVKGRFTISRDDSKNTLYLQMNSLRAEDTAVYYCVRHGNFGDSYVSWFAYWGQGTLVTVSSASTKGPSVFPLAPSSKSTSGGTAALGCLVKDYFPEPVTVSWNSGALTSGVHTFPAVLQSSGLYSLSSVVTVPSSSLGTQTYICNVNHKPSNTKVDKKVEPKSCGGGGSDIQMTQSPSSLSASVGDRVTITCRSSQSVYNNLLGWYQQKPGKAPKLLIYSASTLASGVPSRFSGSGSGTDFTLTISSLQPEDSATYYCQGTYYTGDWYYPFGCGTKVEIKGGGGSGGGGSGGGGSGGGGSQVQLVESGGGSVQPGRSLRLSCAASGFTFSTYGVSWVRQAPGKCLEWIGYIDPVYGSTHYADSVKGRFTISRDNSKNTLYLQMNSLRAEDTASYYCARDLYAGSSGYYMIYSLWGQGTSVTVSS
light: QAVVTQEPSLTVSPGGTVTLTCGSSTGAVTTSNYANWVQQKPGKSPRGLIGGTNKRAPGVPARFSGSLLGGKAALTISGAQPEDEADYYCALWYSNHWVFGGGTKLTVLGQPKAAPSVTLFPPSSEELQANKATLVCLISDFYPGAVTVAWKADSSPVKAGVETTTPSKQSNNKYAASSYLSLTPEQWKSHRSYSCQVTHEGSTVEKTVAPTECS
notes: Humanized variant of M2638, monovalent Fab-scFv
For B1, the Kd amounted to 1.5 nM.

B2: M3293 (bispecific antibody)
heavy: EVQLVESGGGLVQPGGSLRLSCAASGFTFSTYAMNWVRQAPGKGLEWVGRIRSKYNNYATYYADSVKGRFTISRDDSKNTLYLQMNSLRAEDTAVYYCVRHGNFGDSYVSWFAYWGQGTLVTVSSASTKGPSVFPLAPSSKSTSGGTAALGCLVKDYFPEPVTVSWNSGALTSGVHTFPAVLQSSGLYSLSSVVTVPSSSLGTQTYICNVNHKPSNTKVDKKVEPKSCGGGGSDIQMTQSPSSLSASVGDRVTITCRSSQSVYNNLLGWYQQKPGKAPKLLIYSASTRASGVPSRFSGSGSGTDFTLTISSLQPEDSATYYCQGTYYTGDWYYPFGCGTKVEIKGGGGSGGGGSGGGGSGGGGSQVQLVESGGGSVQPGRSLRLSCAASGFDFSTYGVSWVRQAPGKCLEWIGYIDPVYGSTHYADSVKGRFTISRDNSKNTLYLQMNSLRAEDTASYYCVRDLYAGSSGYYMIYSLWGQGTSVTVSS
light: QAVVTQEPSLTVSPGGTVTLTCGSSTGAVTTSNYANWVQQKPGKSPRGLIGGTNKRAPGVPARFSGSLLGGKAALTISGAQPEDEADYYCALWYSNHWVFGGGTKLTVLGQPKAAPSVTLFPPSSEELQANKATLVCLISDFYPGAVTVAWKADSSPVKAGVETTTPSKQSNNKYAASSYLSLTPEQWKSHRSYSCQVTHEGSTVEKTVAPTECS
notes: as for B1
On to B2, for which the Kd amounted to 0.05 nM.

Values taken from patent US20250333514A1 (CDR LIFE, published 2025).
